28 molecules from US20120058118A1 (Boehringer Ingelheim, published 2012) can be followed below.

Assay [1] addresses T1, human A-beta(1-40) peptide, monomeric (BAM) (human, biotin at the C-terminus in capture ELISA, SPR and TR-FRET; not biotinylated where coated directly (Example 7)).
T1 construct: synthetic peptide (Anaspec), TFA/HFIP treated to give monomer; also called monomeric A-beta
In words: TR-FRET competition, mean IC50.

Assay [2] concerns the target T1, human A-beta(1-40) peptide, monomeric …. In words: TR-FRET competition; labelled competitor not given. In general terms: Time-resolved FRET reads energy transfer from a long-lived donor to a nearby acceptor.

B1: ABII003 (VHH)
VHH: EVQLLESGGGLVLPGGSLRLSCVHSGPTFRTDTMGWFRQAPGKGREFVAAVTWNSGRINYADSVKGRFTVSRDNTRNAAYLQMSGLKDEDTAVYYCTAHRFVVGGNRVEDWRYWGQGTLVTVSS
notes: humanized variant of ABII002
Regarding B1, the concentration for half-maximal inhibition (IC50) in assay [1] and in assay [2] was 2.1 nM in each case.

B2: ABII037 (VHH)
VHH: EVQLLESGGGLVQPGGSLRLSCVHSGPTFRTDTMGWFRQAPGKGREFVAAVTWNSGRINYADSVKGRFTISRDNSKNTAYLQMNSLRAEDTAVYYCAAHRFVVGGNRVEDWRYWGQGTLVTVSS
notes: humanized variant of ABII002
Turning to B2, the IC50 (usually the concentration that inhibits the measured activity by half) in assay [2] was determined as 3.1 nM.

B3: ABII009 (VHH)
VHH: EVQLLESGGGLVLPGGSLRLSCVHSGPTFRTDTMGWFRQAPGKGREFVAAVTWNSGRINYADSVKGRFTVSRDNTKNAAYLQMSGLKDEDTAVYYCTAHRFVVGGNRVEDWRYWGQGTLVTVSS
notes: humanized variant of ABII002
Regarding B3, the IC50 in assay [1] and in assay [2] was 1.7 nM throughout.

B4: ABII006 (VHH)
VHH: EVQLLESGGGLVLPGGSLRLSCVASGPTFRTDTMGWFRQAPGKGREFVAAVTWNSGRINYADSVKGRFTVSRDNTRNAAYLQMSGLKDEDTAVYYCTAHRFVVGGNRVEDWRYWGQGTLVTVSS
notes: humanized variant of ABII002
Consider B4, for which the IC50 in assay [1] and in assay [2] was 80 nM throughout.

B5: ABII008 (VHH)
VHH: EVQLLESGGGLVLPGGSLRLSCVHSGPTFRTDTMGWFRQAPGKGREFVAAVTWNSGRINYADSVKGRFTVSRDNSRNAAYLQMSGLKDEDTAVYYCTAHRFVVGGNRVEDWRYWGQGTLVTVSS
notes: humanized variant of ABII002
In the case of B5, the IC50 in assay [1] and in assay [2] was 1.9 nM in each case.

B6: ABII011 (VHH)
VHH: EVQLLESGGGLVLPGGSLRLSCVHSGPTFRTDTMGWFRQAPGKGREFVAAVTWNSGRINYADSVKGRFTVSRDNTRNALYLQMSGLKDEDTAVYYCTAHRFVVGGNRVEDWRYWGQGTLVTVSS
notes: humanized variant of ABII002
As for B6, the IC50 in assay [1] and in assay [2] was 24 nM each time.

B7: ABII017 (VHH)
VHH: EVQLLESGGGLVLPGGSLRLSCVHSGPTFRTDTMGWFRQAPGKGREFVAAVTWNSGRINYADSVKGRFTVSRDNTRNAAYLQMSGLKDEDTAVYYCAAHRFVVGGNRVEDWRYWGQGTLVTVSS
notes: humanized variant of ABII002
As to B7, the IC50 in assay [1] and in assay [2] was 2.4 nM in each case.

B8: ABII012 (VHH)
VHH: EVQLLESGGGLVLPGGSLRLSCVHSGPTFRTDTMGWFRQAPGKGREFVAAVTWNSGRINYADSVKGRFTVSRDNTRNAAYLQMNGLKDEDTAVYYCTAHRFVVGGNRVEDWRYWGQGTLVTVSS
notes: humanized variant of ABII002
With B8, the IC50 in assay [1] and in assay [2] was 1.5 nM in each case.

B9: ABII015 (VHH)
VHH: EVQLLESGGGLVLPGGSLRLSCVHSGPTFRTDTMGWFRQAPGKGREFVAAVTWNSGRINYADSVKGRFTVSRDNTRNAAYLQMSGLKAEDTAVYYCTAHRFVVGGNRVEDWRYWGQGTLVTVSS
notes: humanized variant of ABII002
In the case of B9, the IC50 in assay [1] and in assay [2] was 1.8 nM each time.

B10: ABII005 (VHH)
VHH: EVQLLESGGGLVLPGGSLRLSCAHSGPTFRTDTMGWFRQAPGKGREFVAAVTWNSGRINYADSVKGRFTVSRDNTRNAAYLQMSGLKDEDTAVYYCTAHRFVVGGNRVEDWRYWGQGTLVTVSS
notes: humanized variant of ABII002
Consider B10, for which the IC50 in assay [1] and in assay [2] was 3.3 nM in each case.

B11: ABII013 (VHH)
VHH: EVQLLESGGGLVLPGGSLRLSCVHSGPTFRTDTMGWFRQAPGKGREFVAAVTWNSGRINYADSVKGRFTVSRDNTRNAAYLQMSSLKDEDTAVYYCTAHRFVVGGNRVEDWRYWGQGTLVTVSS
notes: humanized variant of ABII002
In the case of B11, the IC50 in assay [1] and in assay [2] was 1.6 nM in each case.

B12: ABII014 (VHH)
VHH: EVQLLESGGGLVLPGGSLRLSCVHSGPTFRTDTMGWFRQAPGKGREFVAAVTWNSGRINYADSVKGRFTVSRDNTRNAAYLQMSGLRDEDTAVYYCTAHRFVVGGNRVEDWRYWGQGTLVTVSS
notes: humanized variant of ABII002
As for B12, the IC50 in assay [1] and in assay [2] was 1.3 nM throughout.

B13: ABII016 (VHH)
VHH: EVQLLESGGGLVLPGGSLRLSCVHSGPTFRTDTMGWFRQAPGKGREFVAAVTWNSGRINYADSVKGRFTVSRDNTRNAAYLQMSGLKPEDTAVYYCTAHRFVVGGNRVEDWRYWGQGTLVTVSS
notes: humanized variant of ABII002
In the case of B13, the IC50 in assay [1] and in assay [2] was 2.4 nM in each case.

B14: ABII010 (VHH)
VHH: EVQLLESGGGLVLPGGSLRLSCVHSGPTFRTDTMGWFRQAPGKGREFVAAVTWNSGRINYADSVKGRFTVSRDNTRNTAYLQMSGLKDEDTAVYYCTAHRFVVGGNRVEDWRYWGQGTLVTVSS
notes: humanized variant of ABII002
In the case of B14, the IC50 in assay [1] and in assay [2] was 1.9 nM in each case.

B15: ABII007 (VHH)
VHH: EVQLLESGGGLVLPGGSLRLSCVHSGPTFRTDTMGWFRQAPGKGREFVAAVTWNSGRINYADSVKGRFTISRDNTRNAAYLQMSGLKDEDTAVYYCTAHRFVVGGNRVEDWRYWGQGTLVTVSS
notes: humanized variant of ABII002
As to B15, the IC50 in assay [1] and in assay [2] was 1.6 nM throughout.

B16: ABII018 (VHH)
VHH: EVQLLESGGGLVQPGGSLRLSCVHSGPTFRTDTMGWFRQAPGKGREFVAAVTWNSGRINYADSVKGRFTVSRDNTRNAAYLQMSGLKPEDTAVYYCTAHRFVVGGNRVEDWRYWGQGTLVTVSS
notes: humanized variant of ABII002
As for B16, the IC50 in assay [1] and in assay [2] was 3.2 nM in each case.

B17: ABII004 (VHH)
VHH: EVQLLESGGGLVQPGGSLRLSCVHSGPTFRTDTMGWFRQAPGKGREFVAAVTWNSGRINYADSVKGRFTVSRDNTRNAAYLQMSGLKDEDTAVYYCTAHRFVVGGNRVEDWRYWGQGTLVTVSS
notes: humanized variant of ABII002
As to B17, the IC50 in assay [1] and in assay [2] was 2.1 nM in each case.

B18: ABII051 (VHH)
VHH: EVQLLESGGGLVQPGGSLRLSCAASGRTFNNYNMGWFRQAPGKGREFVAAVSRSGVSTYYADSVKGRFTISRDNAKNAVYLQMNSLRPEDTAIYYCGAAYRGTAINVRRSYDSWGQGTLVTVSS
notes: humanized variant of ABII050
Take B18: the IC50 in assay [1] and in assay [2] was 18 nM throughout.

B19: ABII060 (VHH)
VHH: EVQLLESGGGLVQPGGSLRLSCAASGRTFNNYNMGWFRQAPGKGREFVAAVSRSGVSTYYADSVKGRFTISRDNSKNTLYLQMNSLRPEDTAVYYCAAAYRGTAINVRRSYSSWGQGTLVTVSS
notes: humanized variant of ABII050
For B19, the IC50 in assay [1] and in assay [2] was 50 nM in each case.

B20: ABII052 (VHH)
VHH: EVQLLESGGGLVQPGGSLRLSCAASGRTFNNYNMGWFRQAPGKGREFVAAVSRSGVSTYYADSVKGRFTISRDNSKNAVYLQMNSLRPEDTAIYYCGAAYRGTAINVRRSYDSWGQGTLVTVSS
notes: humanized variant of ABII050
In the case of B20, the IC50 in assay [1] and in assay [2] was 19 nM in each case.

B21: ABII061 (VHH)
VHH: EVQLLESGGGLVQPGGSLRLSCAASGRTFNNYNMGWFRQAPGKGREFVAAVSRSGVSTYYADSVKGRFTISRDNSKNTVYLQMNSLRPEDTAVYYCGAAYRGTAINVRRSYSSWGQGTLVTVSS
notes: humanized variant of ABII050
For the molecule B21, the IC50 in assay [2] was 2.4 nM.

B22: ABII058 (VHH)
VHH: EVQLLESGGGLVQPGGSLRLSCAASGRTFNNYNMGWFRQAPGKGREFVAAVSRSGVSTYYADSVKGRFTISRDNSKNTLYLQMNSLRPEDTAVYYCAAAYRGTAINVRRSYDSWGQGTLVTVSS
notes: humanized variant of ABII050
For the molecule B22, the IC50 in assay [1] and in assay [2] was 73 nM each time.

B23: ABII057 (VHH)
VHH: EVQLLESGGGLVQPGGSLRLSCAASGRTFNNYNMGWFRQAPGKGREFVAAVSRSGVSTYYADSVKGRFTISRDNSKNTVYLQMNSLRPEDTAVYYCAAAYRGTAINVRRSYDSWGQGTLVTVSS
notes: humanized variant of ABII050
For the molecule B23, the concentration for half-maximal inhibition (IC50) in assay [1] and in assay [2] was 46 nM in each case.

B24: ABII053 (VHH)
VHH: EVQLLESGGGLVQPGGSLRLSCAASGRTFNNYNMGWFRQAPGKGREFVAAVSRSGVSTYYADSVKGRFTISRDNAKNTVYLQMNSLRPEDTAIYYCGAAYRGTAINVRRSYDSWGQGTLVTVSS
notes: humanized variant of ABII050
Turning to B24, the IC50 in assay [1] and in assay [2] was 20 nM in each case.

B25: ABII055 (VHH)
VHH: EVQLLESGGGLVQPGGSLRLSCAASGRTFNNYNMGWFRQAPGKGREFVAAVSRSGVSTYYADSVKGRFTISRDNAKNAVYLQMNSLRPEDTAVYYCGAAYRGTAINVRRSYDSWGQGTLVTVSS
notes: humanized variant of ABII050
Take B25: the IC50 in assay [1] and in assay [2] was 22 nM each time.

B26: ABII054 (VHH)
VHH: EVQLLESGGGLVQPGGSLRLSCAASGRTFNNYNMGWFRQAPGKGREFVAAVSRSGVSTYYADSVKGRFTISRDNAKNALYLQMNSLRPEDTAIYYCGAAYRGTAINVRRSYDSWGQGTLVTVSS
notes: humanized variant of ABII050
On to B26, for which the IC50 in assay [1] and in assay [2] was 51 nM each time.

B27: ABII056 (VHH)
VHH: EVQLLESGGGLVQPGGSLRLSCAASGRTFNNYNMGWFRQAPGKGREFVAAVSRSGVSTYYADSVKGRFTISRDNAKNAVYLQMNSLRPEDTAIYYCAAAYRGTAINVRRSYDSWGQGTLVTVSS
notes: humanized variant of ABII050
As to B27, the IC50 in assay [1] and in assay [2] was 29 nM throughout.

B28: ABII019 (VHH)
VHH: EVQLLESGGGLVQPGGSLRLSCAHSGPTFRTDTMGWFRQAPGKGREFVAAVTWNSGRINYADSVKGRFTISRDNSKNTVYLQMNSLRPEDTAVYYCAAHRFVVGGNRVEDWRYWGQGTLVTVSS
notes: humanized variant of ABII002
As to B28, the IC50 in assay [1] and in assay [2] was 14 nM each time.
